In US20190241662A1 (ADAGENE, published 2019):
Like-named read-outs stand apart in the source and are kept apart here.

Columns and labels:
[1] = molecular target: T1, recombinant human CTLA4-Fc (human, UniProt P16410 36-162); assay: ELISA on plate-coated recombinant human CTLA4-Fc, detection with HRP anti-human IgG (Fab specific)
T1 construct: also called human CTLA4 fused with human FC fragment; CTLA4-Fc (Sino Biological, 11159-H03H)
T1 sequence (looked up): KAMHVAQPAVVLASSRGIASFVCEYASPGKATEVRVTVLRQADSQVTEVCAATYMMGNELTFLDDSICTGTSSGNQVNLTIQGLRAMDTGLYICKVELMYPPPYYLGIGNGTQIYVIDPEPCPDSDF
Method: (§1) Plates were blocked with PBS supplemented with 3% non-fat milk at 37° C. for 1 hour. After washing, 100 μL of 3-fold serial dilutions of antibodies were added to each well. After incubation at 37° C. for 1 hour, plates were washed four times, and 100 μL HRP conjugated anti-human IgG (Fab specific) (1:6000 dilution) was added to each well. Plates were incubated at 37° C. for 1 hour, washed four times, and then 50 μL TMB substrate solution was added to each well, and the plate was incubated at room temperature. […] The EC₅₀ was evaluated by fitting the ELISA data using the asymmetrical sigmoidal (five-parameter logistic equation) model of GraphPad Prism 6 software.

[2] = molecular target: T1, recombinant human CTLA4-Fc; assay: ELISA; EC50 divided by the EC50 of TY21580
Method: as §1

[3] = molecular target: T1, recombinant human CTLA4-Fc; assay: ELISA, coated human CTLA4-Fc (as in Example 8)
Method: as §1

[4] = molecular target: T1, recombinant human CTLA4-Fc; assay: ELISA, coated human CTLA4-Fc (as in Example 8); remark: listed apart in the source
Method: as §1

mouse CD86 = molecular target: T2, mouse CD86 (mouse, UniProt P42082 24-244, limits assumed); assay: yeast-display flow cytometry, Normalized FACS Bound
T2 sequence (looked up): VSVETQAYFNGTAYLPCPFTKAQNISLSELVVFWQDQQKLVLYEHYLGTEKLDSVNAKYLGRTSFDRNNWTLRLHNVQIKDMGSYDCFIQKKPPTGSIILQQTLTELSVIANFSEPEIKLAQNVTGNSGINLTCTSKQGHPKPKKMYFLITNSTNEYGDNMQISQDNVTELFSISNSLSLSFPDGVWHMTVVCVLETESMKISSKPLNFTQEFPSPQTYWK

human CD86 = molecular target: T3, human CD86 (human, UniProt P42081 24-247, limits assumed); assay: as above
T3 construct: constructs not described; also called recombinant human CD86 fused with human Fc; CD86-Fc-Bio
T3 sequence (looked up): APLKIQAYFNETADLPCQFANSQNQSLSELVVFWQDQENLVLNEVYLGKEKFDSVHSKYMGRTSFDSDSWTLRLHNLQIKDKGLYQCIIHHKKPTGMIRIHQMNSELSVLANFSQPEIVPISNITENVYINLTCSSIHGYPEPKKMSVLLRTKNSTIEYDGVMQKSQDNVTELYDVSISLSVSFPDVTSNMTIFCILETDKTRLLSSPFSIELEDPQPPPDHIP

human CD80 = molecular target: T4, human CD80 (human, UniProt P33681 35-242, limits assumed); assay: as above
T4 construct: constructs not described; also called biotinylated CD80; CD80-Fc-Bio
T4 sequence (looked up): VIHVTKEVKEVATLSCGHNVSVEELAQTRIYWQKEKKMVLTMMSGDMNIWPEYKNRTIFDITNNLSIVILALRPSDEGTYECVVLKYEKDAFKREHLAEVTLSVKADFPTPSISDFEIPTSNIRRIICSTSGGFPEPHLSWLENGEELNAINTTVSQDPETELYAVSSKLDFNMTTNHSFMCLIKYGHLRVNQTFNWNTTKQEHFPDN

[5] = molecular target: T5, recombinant human CTLA4 fused with human Fc and His tag (human, UniProt P16410 36-162, limits assumed); assay: competition ELISA: plate-bound human CTLA4-Fc-His, biotinylated CD80 as blocked ligand
T5 construct: Coated in the CD80 ELISA, biotinylated and in solution in the CD86 ELISA; also called biotinylated human CTLA4 fused with human FC and His tag
T5 sequence (looked up): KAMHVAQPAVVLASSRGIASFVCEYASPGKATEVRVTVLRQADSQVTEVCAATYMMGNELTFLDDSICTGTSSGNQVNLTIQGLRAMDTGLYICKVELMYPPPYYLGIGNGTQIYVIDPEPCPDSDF
Method: Antibodies were then tested for their ability to block binding of CTLA4 to its cognate ligands CD80 and CD86 by ELISA. […] Plates were blocked with PBS supplemented with 2% (w/v) skim milk at 37° C. for 1 hour. […] Plates were washed four times, and 100 μL HRP-neutravidin (1:1000) was added to each well and incubated at 37° C. for 1 hour. Plates were washed as previously described, and 50 μL TMB substrate solution was added and incubated at room temperature for 5 minutes before the reaction was stopped by 50 μL sulfate acid (2M).

[6] = molecular target: T6, full-length human CTLA4 expressed on cells (human, UniProt P16410 36-223); assay: flow cytometry, transfected HEK293F cells, antibody concentration not given
T6 construct: whole, on cells; also called HEK293F/hCTLA-4 cells; HEK293F/hCTLA4 cells
T6 sequence (looked up): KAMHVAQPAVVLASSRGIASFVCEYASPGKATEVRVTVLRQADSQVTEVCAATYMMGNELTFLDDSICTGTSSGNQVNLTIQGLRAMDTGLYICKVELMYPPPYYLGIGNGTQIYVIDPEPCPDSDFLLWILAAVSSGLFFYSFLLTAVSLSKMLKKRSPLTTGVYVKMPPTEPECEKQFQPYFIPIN
Method: The affinities of the antibodies were also assessed against human and mouse CTLA4 transiently expressed on the surface of HEK293F cells (FIG. 2). Briefly, HEK293F cells were transfected with a plasmid expressing full-length human, monkey or mouse CTLA4 from a bicistronic IRES vector also encoding EGFP, and EGFP expression was used to identify the transfected cells. After 48 hours, the mammalian cell suspension (2×10⁵/well) was transferred to an Eppendorf tube, centrifuged, the supernatant was discarded, the cells were resuspended with 1 mL PBSA (to a density is 4×10⁶ cells/mL), and added to a 96 well plate. […] The cells were then washed once prior to analysis by flow cytometry (Beckman® CytoFlex).

[7] = molecular target: T6, full-length human CTLA4 expressed on …; assay: flow cytometry blocking: HEK293F cells with human CTLA4, 100 nM antibody, then 100 nM CD86-Fc-Bio (blocked ligand); PBSA panel: Mean 10678, 12.2%
Method: (§2) Antibodies were also tested for their ability to block binding of CTLA4 to its cognate ligands CD80 and CD86 by flow cytometry. The plasmid encoding full-length human CTLA4 was transiently expressed in HEK293F cells. Cells were washed with staining buffer (PBSA buffer including 1.76 mM KH₂PO₄, 10.14 mM Na₂HPO₄.12H₂O, 2.68 mM KCl, 136.89 mM NaCl and 1% BSA), and resuspended in staining buffer containing 100 nM test antibodies. […] Cells were washed once, and analyzed by CytoFlex flow cytometry.

[8] = molecular target: T6, full-length human CTLA4 expressed on …; assay: flow cytometry blocking: HEK293F cells with human CTLA4, 100 nM antibody, then 100 nM CD80-Fc-Bio (blocked ligand); PBSA panel: Mean 157692, 26.3%
Method: as §2

B1: TY22563 (antibody, IgG1, V domains shown)
VH: EVQLVESGGGLVQPGGSLRLSCAASGYSISSGYHWSWIRQAPGKGLEWLARIDWDDDKYYSTSLKSRLTISRDNSKNTLYLQLNSLRAEDTAVYYCARSYVYFDYWGQGTLVTVSS
VL: EVGSYYSAYPACDSHYPYCQSSGRSAGGGGSPLGLAGSGGSDIQLTQSPSSLSASVGDRVTITCRASQSVRGRFLAWYQQKPGKAPKLLIYDASNRATGIPSRFSGSGSGTDFTLTISSLQPEDFATYYCQQSSSWPPTFGQGTKVEIKR
notes: IgG1
EC50 (read off the curve) [1]: ~60 nM

B2: TY22775 (antibody, V domains shown)
VH: EVQLVESGGGLVQPGGSLRLSCAASGYSISSGYHWSWIRQAPGKGLEWLARIDWDDDKYYSTSLKSRLTISRDNSKNTLYLQLNSLRAEDTAVYYCARSYVYFDYWGQGTLVTVSS
VL: EVGHSDCDAFYPYCDSSGRSAGGGGTPLGLAGSGGSDIQLTQSPSSLSASVGDRVTITCRASQSVRGRFLAWYQQKPGKAPKLLIYDASNRATGIPSRFSGSGSGTDFTLTISSLQPEDFATYYCQQSSSWPPTFGQGTKVEIKR
masking efficiency [2]: 168
EC50 [3]: 37.3 nM

B3: TY22566 (antibody, IgG1, V domains shown)
VH: EVQLVESGGGLVQPGGSLRLSCAASGYSISSGYHWSWIRQAPGKGLEWLARIDWDDDKYYSTSLKSRLTISRDNSKNTLYLQLNSLRAEDTAVYYCARSYVYFDYWGQGTLVTVSS
VL: EVGSYPNPASDCVPYYYACAYSGRSAGGGGSPLGLAGSGGSDIQLTQSPSSLSASVGDRVTITCRASQSVRGRFLAWYQQKPGKAPKLLIYDASNRATGIPSRFSGSGSGTDFTLTISSLQPEDFATYYCQQSSSWPPTFGQGTKVEIKR
notes: IgG1
EC50 (read off the curve) [1]: ~200 nM

B4: TY22864 (antibody, V domains shown)
VH: EVQLVESGGGLVQPGGSLRLSCAASGYSISSGYHWSWIRQAPGKGLEWLARIDWDDDKYYSTSLKSRLTISRDNSKNTLYLQLNSLRAEDTAVYYCARSYVYFDYWGQGTLVTVSS
VL: DIQLTQSPSSLSASVGDRVTITCRASQSVRGRFLAWYQQKPGKAPKLLIYDASNRATGIPSRFSGSGSGTDFTLTISSLQPEDFATYYCQQSSSWPPTFGQGTKVEIKR
EC50 [4]: 117 nM

B5: TY22776 (antibody, V domains shown)
VH: EVQLVESGGGLVQPGGSLRLSCAASGYSISSGYHWSWIRQAPGKGLEWLARIDWDDDKYYSTSLKSRLTISRDNSKNTLYLQLNSLRAEDTAVYYCARSYVYFDYWGQGTLVTVSS
VL: EVGSSDCVPYYYACAYSGRSAGGGGTPLGLAGSGGSDIQLTQSPSSLSASVGDRVTITCRASQSVRGRFLAWYQQKPGKAPKLLIYDASNRATGIPSRFSGSGSGTDFTLTISSLQPEDFATYYCQQSSSWPPTFGQGTKVEIKR
masking efficiency [2]: 296
EC50 [3]: 65.9 nM

B6: TY22871 (antibody, V domains shown)
VH: EVQLVESGGGLVQPGGSLRLSCAASGYSISSGYHWSWIRQAPGKGLEWLARIDWDDDKYYSTSLKSRLTISRDNSKNTLYLQLNSLRAEDTAVYYCARSYVYFDYWGQGTLVTVSS
VL: DIQLTQSPSSLSASVGDRVTITCRASQSVRGRFLAWYQQKPGKAPKLLIYDASNRATGIPSRFSGSGSGTDFTLTISSLQPEDFATYYCQQSSSWPPTFGQGTKVEIKR
EC50 [4]: 88.1 nM

B7: human CTLA4 mutant ADSQVT42TNDQMT displayed on yeast (receptor)
chain: KAMHVAQPAVVLASSRGIASFVCEYASPGKATEVRVTVLRQTNDQMTEVCAATYMMGNELTFLDDSICTGTSSGNQVNLTIQGLRAMDTGLYICKVELMYPPPYYLGIGNGTQIYVIDPE
notes: also called human CC' loop motif changed to the mouse motif
binding result (mouse CD86): binds
binding result (human CD86): binds
binding result (human CD80): binds

B8: human CTLA4 mutant LGI106AAA displayed on yeast (receptor)
chain: KAMHVAQPAVVLASSRGIASFVCEYASPGKATEVRVTVLRQADSQVTEVCAATYMMGNELTFLDDSICTGTSSGNQVNLTIQGLRAMDTGLYICKVELMYPPPYYAAAGNGTQIYVIDPE
binding result (mouse CD86): binds
binding result (human CD86): binds
binding result (human CD80): binds

B9: TY21587 (antibody, V domains shown)
VH: EVQLVESGGGLVQPGGSLRLSCAASGFTFSDYGIHWVRQAPGKGLEWIGEIYHSGSTYYSPSLKSRVTISRDNSKNTLYLQLNSLRAEDTAVYYCARDVAPGSSGYYDGFDFWGQGTLVTVSS
VL: DIQLTQSPSSLSASVGDRVTITCRASQGIGSSLAWYQQKPGKAPKLLIYDASNRATGIPSRFSGSGSGTDFTLTISSLQPEDFATYYCQQYDQWPPWTFGQGTKVEIK
notes: human IgG1 (hIgG1) from Fab hit B15722
IC50 (read off the curve) [5]: ~30 nM
% of cells in upper right quadrant (Q2) [6]: 23.6%
% of cells in upper right quadrant (CD86-positive) in the presence of the antibody [7]: 6.59%
Mean of the CD86 binding signal in the presence of the antibody [7]: 5710
% of cells in upper right quadrant (CD80-positive) in the presence of the antibody [8]: 25.8%
Mean of the CD80 binding signal in the presence of the antibody [8]: 85700

B10: YLGIG105FVGMG (receptor, Homo sapiens, UniProt P16410 36-161, looked up)
CTLA4: KAMHVAQPAVVLASSRGIASFVCEYASPGKATEVRVTVLRQADSQVTEVCAATYMMGNELTFLDDSICTGTSSGNQVNLTIQGLRAMDTGLYICKVELMYPPPYFVGMGNGTQIYVIDPEPCPDSD
binding result (mouse CD86): binds
binding result (human CD86): binds
binding result (human CD80): binds
